B1: No. 270 항체 (Full IgG) (antibody, V domains shown)
VH: QVQLVQSGGGLVQPGGSLRLSCAASGLTVSSNYMTWVRQAPGKGLEWVSVIYSGGSTFYADSVKGRFTISRDNSKNTLYLQMNSLRAEDTAVYYCARDLVVYGMDVWGQGTTVTVSS
VL: ELVLTQSPGTLSLSPGERATLSCRASQSVSSYLAWYQQKPGQAPRLLIYDASNRATGIPARFSGSGSGTDFTLTISSLEPEDFAVYYCQQYGSSPLTFGGGTKVDIK
B2: No. 281 항체 (Full IgG) (antibody, V domains shown)
VH: QVQLVQSGGGLVQPGGSLRLSCAASGITVSSNYMSWVRQAPGKGLEWVSVIYSGGSTNYADSVKGRFTISRDNSKNTLYLQMNSLRAEDTAVYYCARDLIVYGMDVWGQGTTVTVSS
VL: ELVLTQPPSVSGAPGQRVTISCTGSSSNIGAGYDVHWYQQLPGTAPKLLIYGNSNRPSGVPDRFSGSKSGTSASLAITGLQAEDEADYYCAAWDDSLSGWVFGGGTKVTVL
B3: No. 275 항체 (Full IgG) (antibody, V domains shown)
VH: EVQLVESGGGLVQPGGSLRLSCAASGFTVSSNYMTWVRQAPGKGLEWVSVIYSGGSTFYADSVKGRFTISRDNSKNTLYLQMNSLRAEDTAVYYCARDLVVYGMDVWGQGTTVTVSS
VL: ELVLTQPPSVSVAPGKTARITCGGNNIGSNTVNWYQQLPGTAPKLLIYSNNLRPSGVPDRFSGSKSGTSASLAISGLQSEDEADYYCAAWDDSLNGPVFGGGTKVTVL
B4: No. 271 항체 (Full IgG) (antibody, V domains shown)
VH: EVQLVESGGGLVQPGGSLRLSCAASGFTVSSNYMTWVRQAPGKGLEWVSVIYSGGSTFYADSVKGRFTISRDNSKNTLYLQMNSLRAEDTAVYYCARDLVVYGMDVWGQGTTVTVSS
VL: ELELTQPPSASGTPGQRVTISCSGSSSNIGSNTVNWYQQLPGTAPKLLIYSNNQRPSGVPDRFSGSKSGTSASLAISGLQSEDEADYYCSSYAGSNNLVFGGGTKLTVL
B5: No. 274 항체 (Full IgG) (antibody, V domains shown)
VH: EVQLVESGGGLVQPGGSLRLSCAASGFTVSSNYMTWVRQAPGKGLEWVSVIYSGGSTFYADSVKGRFTISRDNSKNTLYLQMNSLRAEDTAVYYCARDLVVYGMDVWGQGTTVTVSS
VL: ELELTQPPSVSGAPGQRVTISCTGSSSNIGAGYDVHWYQQLPGTAPKLLIYGNSNRPSGVPDRFSGSKSGTSASLAITGLQAEDEADYYCQSYDSSLGVVFGGGTKVTVL
B6: No. 260 항체 (Full IgG) (antibody, V domains shown)
VH: EVQLVESGGGLVQPGRTLRLSCAASGFTFDDYAMHWVRQPPGKGLEWVSGIDWNSGLIGYADAVKGRFTLSRDNAKNSIFLQMNSLRAEDTALYYCVKDMGSTGGYYGMDVWGQGTTVIVSS
VL: not shown
B7: No. 152 항체 (Full IgG) (antibody, V domains shown)
VH: QITLKESGPSLVKPSQTLTLTCTFSGFSLTTSGMGVGWIRQPPGKALEWLALIDWDDNKYYTTSLKTRLTISKDTSKNQVVLTMTNMDPVDTATYYCARIPGFLRYRNRYYYYGMDVWGQGTTVTVSS
VL: ELVLTQPPSVSAAPGQKVTISCSGRSSNIGNNYVSWYQQLPGTAPKLLIYDNNKRPSGIPDRFSGSKSGTSATLGITGLQTGDEADYYCGTWDSSLSAGVFGGGTQLTVL
B8: No. 284 항체 (Full IgG) (antibody, V domains shown)
VH: QVQLVQSGGGLVQPGGSLRLSCAASGVTVSSNYMSWVRQAPGKGLEWVSVIYSGGSTYYADSVKGRFTISRHNSKNTLYLQMNSLRAEDTAVYYCARGHVDIPYGMDVWGQGTTVTVSS
VL: ELVLTQPPSVSAAPGQKVTISCSGSSSNIGNNYVSWYQQLPGTAPKLLIYDNNKRPSGIPDRFSGSKSGTSATLGITGLQTGDEADYYCGTWDSSLSAGVFGGGTQLTVL
B9: No. 217 항체 (Full IgG) (antibody, V domains shown)
VH: EVQLVESGGGVVQPGRSLRLSCAASGFTFSRFAMHWVRQAPGKGLEWVAVVSYDGSNNYYADSVKGRFTISRDNSKNTLYLQMNSLRAEDTAVYYCARGDYYGSGSYYNPSPFFDYWGQGTLVTVSS
VL: not shown
B10: No. 218 항체 (Full IgG) (antibody, V domains shown)
VH: QVQLVQSGGGVVQPGRSLRLSCAASGFTFSSFAMHWVRQAPGKGLEWVAVISFDGSNKYYADSVKGQFTISRDNSKNTLYLQMNSLRAEDTAVYYCARGDYYGSGSYYNPSPFFDYWGQGTLVTVSS
VL: ELELTQPPSVSGTPGQRVSISCSGSTSNIGSNPVNWFQQLPGTAPKLLIYSNNQRPSGVPNRFSGSKSGTSASLAISGLQSDDEADYYCAAWDDSLNGWVFGGGTKVTVL
B11: No. 230 항체 (Full IgG) (antibody, V domains shown)
VH: QVQLVQSGGGVVQPGRSLRLSCAASGFTFSNFAMHWVRQAPGKGLEWVAVISYDGSNKYYADSVKGRFTISRDNFKNTLYLQMNSLRAEDTAVYYCARGDYYGSGSYYNPSPFFDYWGQGTLVTVSS
VL: not shown

molecular target: T1, S protein of SARS-CoV-2 BetaCoV/Korea/KCDC03/2020 (614D, S형) (SARS-CoV-2, UniProt P0DTC2 14-1273); experiment: cell-based or functional assay

Row | Binder | IC50, PRNT
1 | B1 | 0.152 µg/mL
2 | B2 | 1.43 µg/mL
3 | B3 | 0.272 µg/mL
4 | B4 | 1.68 µg/mL
5 | B5 | 0.301 µg/mL
6 | B6 | 0.401 µg/mL
7 | B7 | 0.0062 µg/mL
8 | B8 | 0.702 µg/mL
9 | B9 | 5.95 µg/mL
10 | B10 | 0.562 µg/mL
11 | B11 | 0.432 µg/mL

molecular target: T1, S protein of SARS-CoV-2 …; experiment: cell-based or functional assay; remark: another data set of the same source

Row | Binder | IC50, PRNT
12 | B6 | > 1 µg/mL

molecular target: S protein of SARS-CoV-2 hCoV-19/South Korea/KUMC17/2020 (614G) (SARS-CoV-2, UniProt P0DTC2 14-1273); experiment: cell-based or functional assay

Row | Binder | IC50, PRNT
13 | B6 | > 1 µg/mL
